In the supplement of paper PMC10724198:
± gives the standard deviation of the averaged measurements.

test system: Saccharomyces cerevisiae; test: protein stability index of tFT-peptide fusion (C-terminal peptide) (PSI (0-1 scale)); higher = more stable (slower turnover); conditions: genetic background: wild type; temperature: 30 C
Experimental: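 Multiplexed protein stability (MPS) profiling in S. cerevisiae. Random 12-aa peptides (tFT-X12 library) are fused to the C-terminus of a sfGFP-mCherry tandem fluorescent timer, after mCherry and a GGGS linker. Cells are FACS-sorted into 8 mCherry/sfGFP bins and deep-sequenced. The protein stability index (PSI) is the read-weighted bin average, scaled from 0 (unstable) to 1 (stable). Only peptides with >10 reads are reported; cells were grown at 30 °C in SC-His with glucose.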
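Note: PSI is a weighted mean of sequencing reads over stability bins, variants kept only with over 10 reads, mCherry proximal and sfGFP distal, peptide attached via GGGS linker.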

Point of comparison: SDFLTYAEARLD, protein stability index 0.72 ± 0.12. Against it:
- GSNQRRKGEHKP — within error, 0.623 ± 0.036
- PLPSPPPPFLSL — within error, 0.71 ± 0.048
- PEAEPPPPPPPP — lower, 0.552 ± 0.028
- LVGICERRHVHC — within error, 0.638 ± 0.11
- ILTAVFAVPILP — within error, 0.57 ± 0.04
- GPDSSYLITPRR — within error, 0.755 ± 0.065
- AFPLFTDLTRVP — within error, 0.7692 ± 0.0066
- LRSAYGHCLQKI — within error, 0.715 ± 0.14
- NYAMRGSVRTDK — within error, 0.665 ± 0.028
- PRPSPLSSLSVS — within error, 0.7206 ± 0.0064
- LLPPTSRLPRLG — within error, 0.702 ± 0.12
- PAPLPPPPPPRP — within error, 0.689 ± 0.015
- KKKTIKNNERSK — within error, 0.69 ± 0.071
- SPAASPSRPPPI — within error, 0.648 ± 0.025
- SHRRLPPSRFYR — within error, 0.7 ± 0.081
- PRSTFLRRHLRV — within error, 0.6184 ± 0.0037
- INIQKKKKIQHI — lower, 0.508 ± 0.031
- SRFPPYALAHRP — within error, 0.716 ± 0.2
- LTPMDVPDPLPH — within error, 0.757 ± 0.14
- FTWRTIRPRCQW — within error, 0.7184 ± 0.005
- ISPTTFSTHDRC — within error, 0.665 ± 0.077
- GGSRGWGAAAGR — within error, 0.766 ± 0.065
- WKPGSPGCQAFR — within error, 0.6031 ± 0.0017
- RVQAVTNKVAAR — within error, 0.692 ± 0.012
- GKRAKKKNTKRY — within error, 0.662 ± 0.14
- PPPTLYPPPFPP — within error, 0.659 ± 0.027
- VIASPALLLPLF — within error, 0.642 ± 0.062
- ACRPRPPLSRSP — within error, 0.739 ± 0.032
- KKKYKKNKKKNK — within error, 0.65 ± 0.033
- GHGGSKIYCLVD — within error, 0.637 ± 0.062
- SPWFRSAASTPT — within error, 0.786 ± 0.082
- IAQDLEPACIKG — within error, 0.695 ± 0.021
- KNRHWNKKIRKC — within error, 0.6533 ± 0.0065
- RDSQSGVVVKGT — within error, 0.726 ± 0.024
- PDRLPPPLLPPL — within error, 0.718 ± 0.028
- FFPELSNLHPPS — within error, 0.708 ± 0.017
- QTGPPDPPLSPP — within error, 0.643 ± 0.014
- PPPQTRPPTPTP — within error, 0.741 ± 0.081
- GVRCVQGTVTGR — within error, 0.7 ± 0.099
- GDRGFTTEAGNC — within error, 0.67 ± 0.018
- CICFLDGCSFVN — within error, 0.755 ± 0.14
- GPRVLCNCHLRD — within error, 0.688 ± 0.0083
- DVLASSSVWFLI — within error, 0.624 ± 0.0057
- AKLNQLMSKSQI — within error, 0.678 ± 0.02
- RKQHKLRKTKRA — within error, 0.657 ± 0.061
- CVLVGGVPAGGG — within error, 0.6174 ± 0.0028
- NKFSAFSPETWS — within error, 0.7385 ± 0.00092
- IKEITKENNRNE — within error, 0.708 ± 0.083
- PARFPPLPFPPI — within error, 0.74 ± 0.035
- VGCLGYNSAGIN — within error, 0.6968 ± 0.0065
- AYLCLLPPFFTV — within error, 0.674 ± 0.037
- EIERTKNEGEEG — within error, 0.67 ± 0.058
- CGGSCLQDGGWA — within error, 0.787 ± 0.1
- MDGAVRRCLVRG — within error, 0.666 ± 0.062
- VQVLLMFTWERE — lower, 0.511 ± 0.016
- PSPPHLCPSPFA — within error, 0.7518 ± 0.0015
- PAASRPPSPSLL — within error, 0.665 ± 0.046
- HPFARGPLSRHP — within error, 0.7 ± 0.081
- SRSRPLCGVSGV — within error, 0.687 ± 0.052
- LYVARVGQCVRD — within error, 0.686 ± 0.029
- PPPAPPPPPPPP — within error, 0.693 ± 0.068
- HLHGKTERPSHL — within error, 0.811 ± 0.058
- PGLTAVVYRPAD — within error, 0.724 ± 0.04
- APSPPVPTGPRP — within error, 0.664 ± 0.059
- PPPPYPSTRHSP — within error, 0.6564 ± 0.0021
- DTSPSPPPLSVL — within error, 0.693 ± 0.017
- PAAVAQAFPLIT — within error, 0.649 ± 0.05
- SSASSLTIYTRG — within error, 0.728 ± 0.024
- FPSCSAGLHLNL — within error, 0.7521 ± 0.0034
- QSGLAGIPIPKN — within error, 0.681 ± 0.078
- KSHKKKKKNKNF — lower, 0.539 ± 0.0035
- MGSGRGVITTKG — within error, 0.704 ± 0.0077
